B1: ヒト化抗体A AH4−AL7 (antibody, V domains shown)
VH: QVQLVQSGAEVKKPGSSVKVSCKASGYTFTDYNMDWVRQAPGQGLEWMGDINSHSGGIIYNQKFKDRVTITADESTSTAYMELSSLRSEDTAVYYCARTYYVYGHFFDYWGQGTLVTVSS
VL: DIQMTQSPSTLSASIGDRVTITCNVSSSVTSMYWFQQRPGQAPKVLIYLTSNLASGVPSRFSGSGSGTDFTFTISSLQPEDIATYYCQQWSTNPLTFGGGTKVDIK
notes: VH on human IgG1 constant region (pFUSEss-CHIg-hG1), VL on human kappa constant region (pFUSE2ss-CLIg-hk); also called AH4-AL7
B2: ヒト化抗体A AH1−AL7 (antibody, V domains shown)
VH: EVQLVQSGAEVKKPGSSVKVSCKASGYTFTDYNMDWVRQAPGQGLEWIGDINSHSGGIIYNQKFKDKATITADESTNTAYMELSSLRSEDTAVYYCARTYYVYGHFFDYWGQGTTLTVSS
VL: DIQMTQSPSTLSASIGDRVTITCNVSSSVTSMYWFQQRPGQAPKVLIYLTSNLASGVPSRFSGSGSGTDFTFTISSLQPEDIATYYCQQWSTNPLTFGGGTKVDIK
notes: VH on human IgG1 constant region (pFUSEss-CHIg-hG1), VL on human kappa constant region (pFUSE2ss-CLIg-hk); also called AH1-AL7
B3: ヒト化抗体A AH3−AL7 (antibody, V domains shown)
VH: QVQLVQSGAEVKKPGASVKVSCKASGYTFTDYNMDWVRQAPGQGLEWIGDINSHSGGIIYNQKFKDKATMTVDTSTNTAYMELSSLRSEDTAVYYCARTYYVYGHFFDYWGQGTLVTVSS
VL: DIQMTQSPSTLSASIGDRVTITCNVSSSVTSMYWFQQRPGQAPKVLIYLTSNLASGVPSRFSGSGSGTDFTFTISSLQPEDIATYYCQQWSTNPLTFGGGTKVDIK
notes: VH on human IgG1 constant region (pFUSEss-CHIg-hG1), VL on human kappa constant region (pFUSE2ss-CLIg-hk); also called AH3-AL7
B4: ヒト化抗体A AH5−AL7 (antibody, V domains shown)
VH: EVQLVQSGPELKKPGASVKVSCKASGYTFTDYNMDWVKQRPGQGLEWIGDINSHSGGIIYNQKFKDRVTITADESTSTAYMELTSLTSEDTAVYYCARTYYVYGHFFDYWGQGTLVSVSS
VL: DIQMTQSPSTLSASIGDRVTITCNVSSSVTSMYWFQQRPGQAPKVLIYLTSNLASGVPSRFSGSGSGTDFTFTISSLQPEDIATYYCQQWSTNPLTFGGGTKVDIK
notes: VH on human IgG1 constant region (pFUSEss-CHIg-hG1), VL on human kappa constant region (pFUSE2ss-CLIg-hk); also called AH5-AL7
B5: ヒト化抗体A AH6−AL7 (antibody, V domains shown)
VH: QVQLVQSGAEVKKPGASVKVSCKASGYTFTDYNMDWVRQAPGQGLEWIGDINSHSGGIIYNQKFKDRVTITADESTSTAYMELTSLTSEDTAVYYCARTYYVYGHFFDYWGQGTTVTVSS
VL: DIQMTQSPSTLSASIGDRVTITCNVSSSVTSMYWFQQRPGQAPKVLIYLTSNLASGVPSRFSGSGSGTDFTFTISSLQPEDIATYYCQQWSTNPLTFGGGTKVDIK
notes: VH on human IgG1 constant region (pFUSEss-CHIg-hG1), VL on human kappa constant region (pFUSE2ss-CLIg-hk); also called AH6-AL7
B6: ヒト化抗体A AH8−AL7 (antibody, V domains shown)
VH: EVQLVQSGAEVKKPGASVKVSCKASGYTFTDYNMDWVRQAPGKGLEWVGDINSHSGGIIYNQKFKDRVTITADRSTSTVYMELSGLRSEDTAVYYCARTYYVYGHFFDYWGKGTLVTVSS
VL: DIQMTQSPSTLSASIGDRVTITCNVSSSVTSMYWFQQRPGQAPKVLIYLTSNLASGVPSRFSGSGSGTDFTFTISSLQPEDIATYYCQQWSTNPLTFGGGTKVDIK
notes: VH on human IgG1 constant region (pFUSEss-CHIg-hG1), VL on human kappa constant region (pFUSE2ss-CLIg-hk); also called AH8-AL7
B7: ヒト化抗体A AH2−AL2 (antibody, V domains shown)
VH: QVQLQQPGAELVQPGTSVRLSCKASGYTFTDYNMDWVKQRPGQGLEWIGDINSHSGGIIYNQKFKDKATLTVDKSSSTAYMQLSSLTSEDSAVYYCTRTYYVYGHFFDYWGQGTLVTVSA
VL: DIQMTQSPSSLSASVGDRVTITCNVSSSVTSMYWYQQKQGKSPQLLVYLTSNLASGVPSRFSGSGSGTQFSLKINNLQPEDFGSYYCQQWSTNPLTFGAGTKLDLK
notes: VH on human IgG1 constant region (pFUSEss-CHIg-hG1), VL on human kappa constant region (pFUSE2ss-CLIg-hk); also called AH2-AL2
B8: ヒト化抗体A AH2−AL6 (antibody, V domains shown)
VH: QVQLQQPGAELVQPGTSVRLSCKASGYTFTDYNMDWVKQRPGQGLEWIGDINSHSGGIIYNQKFKDKATLTVDKSSSTAYMQLSSLTSEDSAVYYCTRTYYVYGHFFDYWGQGTLVTVSA
VL: EIVLTQSPATLSLSPGERATLSCNVSSSVTSMYWYQQKPGQAPRLLIYLTSNLASGIPDRFSGSGSGTDFTLTISRLEPEDFAVYYCQQWSTNPLTFGQGTKVEIK
notes: VH on human IgG1 constant region (pFUSEss-CHIg-hG1), VL on human kappa constant region (pFUSE2ss-CLIg-hk); also called AH2-AL6
B9: ヒト化抗体A AH2−AL7 (antibody, V domains shown)
VH: QVQLQQPGAELVQPGTSVRLSCKASGYTFTDYNMDWVKQRPGQGLEWIGDINSHSGGIIYNQKFKDKATLTVDKSSSTAYMQLSSLTSEDSAVYYCTRTYYVYGHFFDYWGQGTLVTVSA
VL: DIQMTQSPSTLSASIGDRVTITCNVSSSVTSMYWFQQRPGQAPKVLIYLTSNLASGVPSRFSGSGSGTDFTFTISSLQPEDIATYYCQQWSTNPLTFGGGTKVDIK
notes: VH on human IgG1 constant region (pFUSEss-CHIg-hG1), VL on human kappa constant region (pFUSE2ss-CLIg-hk); also called AH2-AL7
B10: ヒト化抗体A AH2−AL8 (antibody, V domains shown)
VH: QVQLQQPGAELVQPGTSVRLSCKASGYTFTDYNMDWVKQRPGQGLEWIGDINSHSGGIIYNQKFKDKATLTVDKSSSTAYMQLSSLTSEDSAVYYCTRTYYVYGHFFDYWGQGTLVTVSA
VL: ELVLTQSPGTLSLSAGERATLSCNVSSSVTSMYWYQQKPGKAPKLLIYLTSNLASGAPSRFSGSGSGTDFTLTISSLQPDDFATYYCQQWSTNPLTFGGGTKLEIK
notes: VH on human IgG1 constant region (pFUSEss-CHIg-hG1), VL on human kappa constant region (pFUSE2ss-CLIg-hk); also called AH2-AL8
B11: ヒト化抗体A AH3−AL1 (antibody, V domains shown)
VH: QVQLVQSGAEVKKPGASVKVSCKASGYTFTDYNMDWVRQAPGQGLEWIGDINSHSGGIIYNQKFKDKATMTVDTSTNTAYMELSSLRSEDTAVYYCARTYYVYGHFFDYWGQGTLVTVSS
VL: DIQMTQSPSSLSASVGDRVTITCNVSSSVTSMYWYQQKPGKAPKLLIYLTSNLASGVPARFSGSGSGTEFTLTISSLQPDDFATYYCQQWSTNPLTFGAGTKLDLK
notes: VH on human IgG1 constant region (pFUSEss-CHIg-hG1), VL on human kappa constant region (pFUSE2ss-CLIg-hk); also called AH3-AL1
B12: ヒト化抗体A AH3−AL3 (antibody, V domains shown)
VH: QVQLVQSGAEVKKPGASVKVSCKASGYTFTDYNMDWVRQAPGQGLEWIGDINSHSGGIIYNQKFKDKATMTVDTSTNTAYMELSSLRSEDTAVYYCARTYYVYGHFFDYWGQGTLVTVSS
VL: DIQMTQSPSTLSASVGDRVTITCNVSSSVTSMYWYQQKPGKAPKLLIYLTSNLASGVPARFSGSGSGTEFTLTISSLQPDDFATYYCQQWSTNPLTFGQGTKVEVK
notes: VH on human IgG1 constant region (pFUSEss-CHIg-hG1), VL on human kappa constant region (pFUSE2ss-CLIg-hk); also called AH3-AL3
B13: ヒト化抗体A AH3−AL4 (antibody, V domains shown)
VH: QVQLVQSGAEVKKPGASVKVSCKASGYTFTDYNMDWVRQAPGQGLEWIGDINSHSGGIIYNQKFKDKATMTVDTSTNTAYMELSSLRSEDTAVYYCARTYYVYGHFFDYWGQGTLVTVSS
VL: DIQMTQSPSSLSASVGDRVTITCNVSSSVTSMYWYQQKQGKSPQLLVYLTSNLASGVPSRFSGSGSGTDFTLTISSLQPEDFATYYCQQWSTNPLTFGQGTKVEIK
notes: VH on human IgG1 constant region (pFUSEss-CHIg-hG1), VL on human kappa constant region (pFUSE2ss-CLIg-hk); also called AH3-AL4
B14: ヒト化抗体A AH3−AL5 (antibody, V domains shown)
VH: QVQLVQSGAEVKKPGASVKVSCKASGYTFTDYNMDWVRQAPGQGLEWIGDINSHSGGIIYNQKFKDKATMTVDTSTNTAYMELSSLRSEDTAVYYCARTYYVYGHFFDYWGQGTLVTVSS
VL: DIQMTQSPASLSASVGETVTITCNVSSSVTSMYWYQQKPGKAPKLLIYLTSNLASGVPARFSGSGSGTEFTLTISSLQPDDFATYYCQQWSTNPLTFGAGTKLDLK
notes: VH on human IgG1 constant region (pFUSEss-CHIg-hG1), VL on human kappa constant region (pFUSE2ss-CLIg-hk); also called AH3-AL5
B15: ヒト化抗体A AH8−AL1 (antibody, V domains shown)
VH: EVQLVQSGAEVKKPGASVKVSCKASGYTFTDYNMDWVRQAPGKGLEWVGDINSHSGGIIYNQKFKDRVTITADRSTSTVYMELSGLRSEDTAVYYCARTYYVYGHFFDYWGKGTLVTVSS
VL: DIQMTQSPSSLSASVGDRVTITCNVSSSVTSMYWYQQKPGKAPKLLIYLTSNLASGVPARFSGSGSGTEFTLTISSLQPDDFATYYCQQWSTNPLTFGAGTKLDLK
notes: VH on human IgG1 constant region (pFUSEss-CHIg-hG1), VL on human kappa constant region (pFUSE2ss-CLIg-hk); also called AH8-AL1
B16: ヒト化抗体A AH3−AL2 (antibody, V domains shown)
VH: QVQLVQSGAEVKKPGASVKVSCKASGYTFTDYNMDWVRQAPGQGLEWIGDINSHSGGIIYNQKFKDKATMTVDTSTNTAYMELSSLRSEDTAVYYCARTYYVYGHFFDYWGQGTLVTVSS
VL: DIQMTQSPSSLSASVGDRVTITCNVSSSVTSMYWYQQKQGKSPQLLVYLTSNLASGVPSRFSGSGSGTQFSLKINNLQPEDFGSYYCQQWSTNPLTFGAGTKLDLK
notes: VH on human IgG1 constant region (pFUSEss-CHIg-hG1), VL on human kappa constant region (pFUSE2ss-CLIg-hk); also called AH3-AL2
B17: ヒト化抗体A AH3−AL6 (antibody, V domains shown)
VH: QVQLVQSGAEVKKPGASVKVSCKASGYTFTDYNMDWVRQAPGQGLEWIGDINSHSGGIIYNQKFKDKATMTVDTSTNTAYMELSSLRSEDTAVYYCARTYYVYGHFFDYWGQGTLVTVSS
VL: EIVLTQSPATLSLSPGERATLSCNVSSSVTSMYWYQQKPGQAPRLLIYLTSNLASGIPDRFSGSGSGTDFTLTISRLEPEDFAVYYCQQWSTNPLTFGQGTKVEIK
notes: VH on human IgG1 constant region (pFUSEss-CHIg-hG1), VL on human kappa constant region (pFUSE2ss-CLIg-hk); also called AH3-AL6
B18: ヒト化抗体A AH5−AL1 (antibody, V domains shown)
VH: EVQLVQSGPELKKPGASVKVSCKASGYTFTDYNMDWVKQRPGQGLEWIGDINSHSGGIIYNQKFKDRVTITADESTSTAYMELTSLTSEDTAVYYCARTYYVYGHFFDYWGQGTLVSVSS
VL: DIQMTQSPSSLSASVGDRVTITCNVSSSVTSMYWYQQKPGKAPKLLIYLTSNLASGVPARFSGSGSGTEFTLTISSLQPDDFATYYCQQWSTNPLTFGAGTKLDLK
notes: VH on human IgG1 constant region (pFUSEss-CHIg-hG1), VL on human kappa constant region (pFUSE2ss-CLIg-hk); also called AH5-AL1
B19: ヒト化抗体A AH5−AL3 (antibody, V domains shown)
VH: EVQLVQSGPELKKPGASVKVSCKASGYTFTDYNMDWVKQRPGQGLEWIGDINSHSGGIIYNQKFKDRVTITADESTSTAYMELTSLTSEDTAVYYCARTYYVYGHFFDYWGQGTLVSVSS
VL: DIQMTQSPSTLSASVGDRVTITCNVSSSVTSMYWYQQKPGKAPKLLIYLTSNLASGVPARFSGSGSGTEFTLTISSLQPDDFATYYCQQWSTNPLTFGQGTKVEVK
notes: VH on human IgG1 constant region (pFUSEss-CHIg-hG1), VL on human kappa constant region (pFUSE2ss-CLIg-hk); also called AH5-AL3

target: T1, 可溶性ヒトgp130受容体 (soluble human gp130 receptor, extracellular region of SEQ ID NO 1 with six histidines) (human, UniProt P40189 23-619); test: ELISA, immobilised soluble human gp130, COS1 supernatant, anti-human antibody-HRP
T1 construct: Secreted from CHO DG44 cells and purified on HisTrap; no cleavage site is stated; also called 可溶性ヒトgp130受容体タンパク質; ヒト可溶性gp130受容体
T1 sequence: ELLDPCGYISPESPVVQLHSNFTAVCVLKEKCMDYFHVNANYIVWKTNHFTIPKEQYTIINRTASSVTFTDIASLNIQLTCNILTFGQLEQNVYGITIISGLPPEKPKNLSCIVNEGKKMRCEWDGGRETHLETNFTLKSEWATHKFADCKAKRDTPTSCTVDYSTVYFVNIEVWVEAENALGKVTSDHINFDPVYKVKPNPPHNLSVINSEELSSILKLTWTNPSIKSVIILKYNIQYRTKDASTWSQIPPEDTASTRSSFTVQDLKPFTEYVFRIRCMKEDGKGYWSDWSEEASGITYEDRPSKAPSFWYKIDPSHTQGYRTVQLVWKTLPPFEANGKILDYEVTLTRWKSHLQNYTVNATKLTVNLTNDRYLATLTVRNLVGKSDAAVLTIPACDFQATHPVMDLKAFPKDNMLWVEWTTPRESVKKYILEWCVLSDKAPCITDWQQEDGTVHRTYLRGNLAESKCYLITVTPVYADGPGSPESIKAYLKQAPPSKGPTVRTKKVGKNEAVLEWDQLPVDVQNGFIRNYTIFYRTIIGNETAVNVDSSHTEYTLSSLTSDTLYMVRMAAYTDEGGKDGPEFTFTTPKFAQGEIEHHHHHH

Binder | binding result
B1 | binds
B2 | binds
B3 | binds
B4 | binds
B5 | binds
B6 | binds
B7 | binds
B8 | binds
B9 | binds
B10 | binds
B11 | binds
B12 | binds
B13 | binds
B14 | binds
B15 | binds
B16 | binds
B17 | binds
B18 | binds
B19 | binds
